Assay results taken from the supplement of paper PMC9170038.

System: K4 kissing-loop RNA reporter
Assay: apparent KD of K4 kissing-loop reporter; higher = weaker reporter binding
Conditions: Eterna round: R107
Protocol: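 RNA-MaP round R107: designed RNA switches with theophylline, tryptophan, arginine or FMN aptamers are transcribed on-chip within common flanks. They are titrated with a labelled K4 kissing-loop RNA reporter in RNA-MaP buffer (100 mM Tris pH 7.5, 80 mM KCl, 4 mM MgCl2), without ligand or with the indicated ligand. Median apparent KD per design.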

[1] = input ligand: theophylline 20 uM
[2] = input ligand: tryptophan 2.4 mM
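Also: bound reporter read as fluorescence of individual clusters on recovered sequencing chips by microscopy, with normalized cluster intensities fitted with a binding model.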

Sequence	apparent KD of K4 kissing-loop reporter (input ligand: FMN 200 uM)	apparent KD of K4 kissing-loop reporter (input ligand: arginine 13.2 mM)	apparent KD of K4 kissing-loop reporter (input ligand: none)	apparent KD of K4 kissing-loop reporter [1]	apparent KD of K4 kissing-loop reporter [2]
UGACUGGACUGAAGGAGCGAGGACGGUCAUAGACCGAAUUCAGUGAUGUUGAAAAUAAAACCUCAGGUAGGUCGCAGUCUAGUCU [ArgBS 3 #SwitchBubble #StaticStem]	228 nM	193 nM	219 nM	216 nM	204 nM
UGACUGGACUGAAGGAGCGCGCGAGACAAAGUCUCGAACUCGUAGUGAUGUUAGGAAAUAACGCAGGUAGGUCGCAGUCUAGUCU	651 nM	417 nM	611 nM	796 nM	512 nM
UGACUGGACUGAAGGAGCGCUAAACUCCUAGUGAUGUUAGGAAAACGAGACAAAGUCUCGAGGCAGGUAGGUCGCAGUCUAGUCU [ArgBS 18 #SwitchBubble #StaticStem]	123 nM	120 nM	136 nM	128 nM	114 nM
UGACUGGACUGAAGGAGCGCUAAACUCCUAGUGAUGUUAGGGAACCGAGACAAAGUCUCGAGGCAGGUAGGUCGCAGUCUAGUCU [FiskerMod 2 - Jieux - Same State - Arginine B]	295 nM	253 nM	307 nM	359 nM	288 nM
UGACUGGACUGAAGGAGCGCUGAACUCCUAGUGAUGUUAGGAAAACGAGACAAAGUCUCGAAGCAGGUAGGUCGCAGUCUAGUCU	138 nM	101 nM	112 nM	138 nM	115 nM
UGACUGGACUGAAGGAGCGGGAAACUCCUAGUGAUGUUAGGAAUACGAGACAAAGUCUCGACCCAGGUAGGUCGCAGUCUAGUCU [ArgBS 17 #SwitchBubble #StaticStem]	121 nM	93.3 nM	108 nM	116 nM	119 nM
UGAGAGUACCGGAUGGAGAAAUUGUAUGAUACCAGAGCAGAUUACCUCCCUUGGCAGCAUGCAUCCUGCUAGUGAUGUUGGCAAC [theeternabot_sameState_KL_Theo_A_48]	676 nM	459 nM	741 nM	669 nM	535 nM
UGAGUUUGAGUGAUGUUCAGGCAUUGGUACGAGGAUAUCGAGGAGUUGAGAAGGCGUACUGCUCAACUUUGUAUGAAUACAUACA [FMN A Ex t2b]	259 nM	73.4 nM	106 nM	117 nM	103 nM
UGAUAAAGCAGUGAUGUUGCAAGAAAUGAUACCAGUUAAGAAGAGAACCCUUGGCAGCAUAAAGUGCGCUCUAAUGAGUGUGCUU [whbob_SS_Theo_A_w50]	88.8 nM	143 nM	123 nM	179 nM	87.6 nM
UGAUACCAGACGGCCGCCACUAGACCAGUCAAAGACUGGAAGUGAUGUUUGAGGAGUGAUGUUCCUAGGACCGGGUCUGGUAUCU [TrypBX 3 #Palindromic #SwitchBubble #StaticStem]	97.9 nM	81.7 nM	90.5 nM	89 nM	41.5 nM
UGAUACCAGACGGCCGCCACUCCCGCAGGUCAAAGACCUGCGAAGAAGGUUCUUUAGUGAUGUUGGAGGACCGGGUCUGGUAUCU [FiskerMod 21 - Jieux - Exclusion - Tryptophan B]	735 nM	312 nM	744 nM	417 nM	523 nM
UGAUACCAGACGGCCGCCACUCCCGUAAGUCAAAGACUUACCAAGAGAAUCGUCCAGUGAUGUUGGAGGACCGGGUCUGGUAUCU [FiskerMod 8 - Jieux - Exclusion - Tryptophan B]	922 nM	845 nM	998 nM	732 nM	682 nM
UGAUACCAGACGGCCGCCACUCCCGUAAGUCAAAGACUUACGAAGAGAGUUAUCCAGUGAUGUUGGAGGACCGGGUCUGGUAUCU [FiskerMod 14 - Jieux - Exclusion - Tryptophan B]	210 nM	199 nM	192 nM	199 nM	261 nM
UGAUACCAGACGGCCGCCACUCCCGUAAGUCAAAGACUUACGAAGAGAGUUUUCCAGUGAUGUUGGAGGACCGGGUCUGGUAUCU [FiskerMod 15 - Jieux - Exclusion - Tryptophan B]	186 nM	168 nM	175 nM	174 nM	232 nM
UGAUACCAGACGGCCGCCACUCCUGCAGUCAAAGACUGCUAAGGAAUAUUCGUCCAGUGAUGUUGGAGGACCGGGUCUGGUAUCU [TrypBX 12 #SwitchBubble #Palindromic #StaticStem]	1370 nM	991 nM	1380 nM	896 nM	979 nM
UGAUACCAGACGGCCGCCACUGCACCAGUCAAUGACUGAGCGCGGUGGCGCUCAGUGAUGUUGAGCAGGACCGGGUCUGGUAUCU [Mod of Eli's TrypBX 8 v4]	147 nM	117 nM	136 nM	145 nM	93.9 nM
UGAUACCAGACGGCCGCCACUGGUGCAGUCAAAGACUGCUAAAACCAAAUCGUGGAGUGAUGUUCCAGGACCGGGUCUGGUAUCU [TrypBX 20 #SwitchBubble #Palindromic #StaticStem]	451 nM	423 nM	452 nM	462 nM	674 nM
UGAUACCAGACGGCCGCCACUUCCGUAAGUCAAAGACUUACCAAGGGAAUCGUCCAGUGAUGUUGGAGGACCGGGUCUGGUAUCU [FiskerMod 6 - Jieux - Exclusion - Tryptophan B]	960 nM	744 nM	1260 nM	959 nM	788 nM
UGAUACCAGACGGCCGCCACUUCUGCAAGUCAAAGACUUGCUAAAGGAAUCGUCCAGUGAUGUUGGAGGACCGGGUCUGGUAUCU [FiskerMod 1 - Jieux - Exclusion - Tryptophan B]	1020 nM	823 nM	1170 nM	638 nM	772 nM
UGAUACCAGACUGAUACCAGCAAGUGAUGUUUGUUGAUCUAAAGCAGUCAAAGACUGCCUUGCCCUUGGCAGCAGUCUGGUAUCU [TheoBX 27 #SwitchBubble #StaticStem]	886 nM	569 nM	832 nM	354 nM	901 nM
UGAUACCAGACUGAUACCAGCCACAGAGUCAAAGACUCUGAUAAAGGAACCAGUGAUGUUGGCCCUUGGCAGCAGUCUGGUAUCU [TheoBX 24 #SwitchBubble #StaticStem]	131 nM	113 nM	118 nM	107 nM	156 nM
